Measurements taken from patent publication US20140105889A1 (published 2014).

T1: human FcγRIIa type R (human, UniProt P12318 36-217)
T1 construct: also called FcγRIIaR; FcγRIIa(R)
T1 chain: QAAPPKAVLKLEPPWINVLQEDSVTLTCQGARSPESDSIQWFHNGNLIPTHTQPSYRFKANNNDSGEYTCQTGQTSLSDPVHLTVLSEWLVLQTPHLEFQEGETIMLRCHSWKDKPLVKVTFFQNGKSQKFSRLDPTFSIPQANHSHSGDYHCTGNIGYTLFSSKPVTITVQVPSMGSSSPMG

T2: human FcγRIIb (human, UniProt P31994 43-217)
T2 construct: also called FcγIIB
T2 sequence: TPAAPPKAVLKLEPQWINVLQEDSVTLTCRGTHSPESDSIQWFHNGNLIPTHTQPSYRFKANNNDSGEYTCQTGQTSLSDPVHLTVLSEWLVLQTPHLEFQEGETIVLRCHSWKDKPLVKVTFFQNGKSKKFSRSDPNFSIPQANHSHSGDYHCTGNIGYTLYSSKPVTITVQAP

T3: human FcγRIIa type H (human, UniProt P12318 36-217)
T3 construct: Whole entry named for FcγRIIa allotype H131 (AAH20823.1); also called FcγRIIaH; FcγRIIa(H)
T3 sequence: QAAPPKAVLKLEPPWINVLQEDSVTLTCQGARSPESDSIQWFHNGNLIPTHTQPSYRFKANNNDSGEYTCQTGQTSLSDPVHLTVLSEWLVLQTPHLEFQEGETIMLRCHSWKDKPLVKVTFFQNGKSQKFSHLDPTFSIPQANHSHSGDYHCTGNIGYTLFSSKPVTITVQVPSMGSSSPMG

B1: IL6R-2B172/IL6R-L (antibody, human IgG1)
heavy: QVQLQESGPGLVKPSETLSLTCAVSGHSISHDHAWSWVRQPPGEGLEWIGFISYSGITNYNPSLQGRVTISRDNSKNTLYLQMNSLRAEDTAVYYCARSLARTTAMDYWGEGTLVTVSSASTKGPSVFPLAPSSKSTSGGTAALGCLVKDYFPEPVTVSWNSGALTSGVHTFPAVLQSSGLYSLSSVVTVPSSSLGTQTYICNVNHKPSNTKVDKKVEPKSCDKTHTCPPCPAPELLGGDSVFLFPPKPKDTLMISRTPEVTCVVVDVSHEDPEVKFNWYVDGVEVHNAKTKPREEQYNSTYRVVSVLTVLHQDWLNGKEYKCKMSNKALPAPIEKTISKAKGQPREPQVYTLPPSRDELTKNQVSLTCLVKGFYPSDIAVEWESNGQPENNYKTTPPVLDSDGSFFLYSKLTVDKSRWQQGNVFSCSVMHEALHNHYTQESLSLSP
light: DIQMTQSPSSLSASVGDRVTITCRASQDISSYLNWYQQKPGKAPKLLIYYTSRLHSGVPSRFSGSGSGTDFTFTISSLQPEDIATYYCQQGNTLPYTFGQGTKVEIK
notes: copies: 2 + 2
B2: IL6R-BP119/IL6R-L (antibody, human IgG1)
heavy: QVQLQESGPGLVKPSETLSLTCAVSGHSISHDHAWSWVRQPPGEGLEWIGFISYSGITNYNPSLQGRVTISRDNSKNTLYLQMNSLRAEDTAVYYCARSLARTTAMDYWGEGTLVTVSSASTKGPSVFPLAPSSKSTSGGTAALGCLVKDYFPEPVTVSWNSGALTSGVHTFPAVLQSSGLYSLSSVVTVPSSSLGTQTYICNVNHKPSNTKVDKKVEPKSCDKTHTCPPCPAPELLGGDSVFLFPPKPKDTLMISRTPEVTCVVVDVSHEDPEVKFNWYVDGVEVHNAKTKPREEQYNSTYRVVSVLTVLHQDWLNGKEYKCKVSNMALPAPIEKTISKAKGQPREPQVYTLPPSRDELTKNQVSLTCLVKGFYPSDIAVEWESNGQPENNYKTTPPVLDSDGSFFLYSKLTVDKSRWQQGNVFSCSVMHEALHNHYTQESLSLSP
light: DIQMTQSPSSLSASVGDRVTITCRASQDISSYLNWYQQKPGKAPKLLIYYTSRLHSGVPSRFSGSGSGTDFTFTISSLQPEDIATYYCQQGNTLPYTFGQGTKVEIK
notes: copies: 2 + 2
B3: IL6R-BP110/IL6R-L (antibody, human IgG1)
heavy: QVQLQESGPGLVKPSETLSLTCAVSGHSISHDHAWSWVRQPPGEGLEWIGFISYSGITNYNPSLQGRVTISRDNSKNTLYLQMNSLRAEDTAVYYCARSLARTTAMDYWGEGTLVTVSSASTKGPSVFPLAPSSKSTSGGTAALGCLVKDYFPEPVTVSWNSGALTSGVHTFPAVLQSSGLYSLSSVVTVPSSSLGTQTYICNVNHKPSNTKVDKKVEPKSCDKTHTCPPCPAPELLGGDSVFLFPPKPKDTLMISRTPEVTCVVVDVSNEDPEVKFNWYVDGVEVHNAKTKPREEQYNSTYRVVSVLTVLHQDWLNGKEYKCKVSNKALPAPIEKTISKAKGQPREPQVYTLPPSRDELTKNQVSLTCLVKGFYPSDIAVEWESNGQPENNYKTTPPVLDSDGSFFLYSKLTVDKSRWQQGNVFSCSVMHEALHNHYTQESLSLSP
light: DIQMTQSPSSLSASVGDRVTITCRASQDISSYLNWYQQKPGKAPKLLIYYTSRLHSGVPSRFSGSGSGTDFTFTISSLQPEDIATYYCQQGNTLPYTFGQGTKVEIK
notes: copies: 2 + 2
B4: IL6R-BP116/IL6R-L (antibody, human IgG1)
heavy: QVQLQESGPGLVKPSETLSLTCAVSGHSISHDHAWSWVRQPPGEGLEWIGFISYSGITNYNPSLQGRVTISRDNSKNTLYLQMNSLRAEDTAVYYCARSLARTTAMDYWGEGTLVTVSSASTKGPSVFPLAPSSKSTSGGTAALGCLVKDYFPEPVTVSWNSGALTSGVHTFPAVLQSSGLYSLSSVVTVPSSSLGTQTYICNVNHKPSNTKVDKKVEPKSCDKTHTCPPCPAPELLGGDSVFLFPPKPKDTLMISRTPEVTCVVVDVSHEDPEVKFNWYVDGVEVHNAKTKPREEQYNSTYRVVSVLTVLHQDWLNGKEYKCKVSNTALPAPIEKTISKAKGQPREPQVYTLPPSRDELTKNQVSLTCLVKGFYPSDIAVEWESNGQPENNYKTTPPVLDSDGSFFLYSKLTVDKSRWQQGNVFSCSVMHEALHNHYTQESLSLSP
light: DIQMTQSPSSLSASVGDRVTITCRASQDISSYLNWYQQKPGKAPKLLIYYTSRLHSGVPSRFSGSGSGTDFTFTISSLQPEDIATYYCQQGNTLPYTFGQGTKVEIK
notes: copies: 2 + 2
B5: IL6R-BP103/IL6R-L (antibody, human IgG1)
heavy: QVQLQESGPGLVKPSETLSLTCAVSGHSISHDHAWSWVRQPPGEGLEWIGFISYSGITNYNPSLQGRVTISRDNSKNTLYLQMNSLRAEDTAVYYCARSLARTTAMDYWGEGTLVTVSSASTKGPSVFPLAPSSKSTSGGTAALGCLVKDYFPEPVTVSWNSGALTSGVHTFPAVLQSSGLYSLSSVVTVPSSSLGTQTYICNVNHKPSNTKVDKKVEPKSCDKTHTCPPCPAPELLGGDSVFLFPPKPKDTLMISRTPEVTCVVVDVVHEDPEVKFNWYVDGVEVHNAKTKPREEQYNSTYRVVSVLTVLHQDWLNGKEYKCKVSNKALPAPIEKTISKAKGQPREPQVYTLPPSRDELTKNQVSLTCLVKGFYPSDIAVEWESNGQPENNYKTTPPVLDSDGSFFLYSKLTVDKSRWQQGNVFSCSVMHEALHNHYTQESLSLSP
light: DIQMTQSPSSLSASVGDRVTITCRASQDISSYLNWYQQKPGKAPKLLIYYTSRLHSGVPSRFSGSGSGTDFTFTISSLQPEDIATYYCQQGNTLPYTFGQGTKVEIK
notes: copies: 2 + 2
B6: IL6R-BP118/IL6R-L (antibody, human IgG1)
heavy: QVQLQESGPGLVKPSETLSLTCAVSGHSISHDHAWSWVRQPPGEGLEWIGFISYSGITNYNPSLQGRVTISRDNSKNTLYLQMNSLRAEDTAVYYCARSLARTTAMDYWGEGTLVTVSSASTKGPSVFPLAPSSKSTSGGTAALGCLVKDYFPEPVTVSWNSGALTSGVHTFPAVLQSSGLYSLSSVVTVPSSSLGTQTYICNVNHKPSNTKVDKKVEPKSCDKTHTCPPCPAPELLGGDSVFLFPPKPKDTLMISRTPEVTCVVVDVSHEDPEVKFNWYVDGVEVHNAKTKPREEQYNSTYRVVSVLTVLHQDWLNGKEYKCKVSNSALPAPIEKTISKAKGQPREPQVYTLPPSRDELTKNQVSLTCLVKGFYPSDIAVEWESNGQPENNYKTTPPVLDSDGSFFLYSKLTVDKSRWQQGNVFSCSVMHEALHNHYTQESLSLSP
light: DIQMTQSPSSLSASVGDRVTITCRASQDISSYLNWYQQKPGKAPKLLIYYTSRLHSGVPSRFSGSGSGTDFTFTISSLQPEDIATYYCQQGNTLPYTFGQGTKVEIK
notes: copies: 2 + 2
B7: IL6R-BP102/IL6R-L (antibody, human IgG1)
heavy: QVQLQESGPGLVKPSETLSLTCAVSGHSISHDHAWSWVRQPPGEGLEWIGFISYSGITNYNPSLQGRVTISRDNSKNTLYLQMNSLRAEDTAVYYCARSLARTTAMDYWGEGTLVTVSSASTKGPSVFPLAPSSKSTSGGTAALGCLVKDYFPEPVTVSWNSGALTSGVHTFPAVLQSSGLYSLSSVVTVPSSSLGTQTYICNVNHKPSNTKVDKKVEPKSCDKTHTCPPCPAPELLGGDSVFLFPPKPKDTLMISRTPEVTCVVVDVQHEDPEVKFNWYVDGVEVHNAKTKPREEQYNSTYRVVSVLTVLHQDWLNGKEYKCKVSNKALPAPIEKTISKAKGQPREPQVYTLPPSRDELTKNQVSLTCLVKGFYPSDIAVEWESNGQPENNYKTTPPVLDSDGSFFLYSKLTVDKSRWQQGNVFSCSVMHEALHNHYTQESLSLSP
light: DIQMTQSPSSLSASVGDRVTITCRASQDISSYLNWYQQKPGKAPKLLIYYTSRLHSGVPSRFSGSGSGTDFTFTISSLQPEDIATYYCQQGNTLPYTFGQGTKVEIK
notes: copies: 2 + 2
B8: IL6R-BP100/IL6R-L (antibody, human IgG1)
heavy: QVQLQESGPGLVKPSETLSLTCAVSGHSISHDHAWSWVRQPPGEGLEWIGFISYSGITNYNPSLQGRVTISRDNSKNTLYLQMNSLRAEDTAVYYCARSLARTTAMDYWGEGTLVTVSSASTKGPSVFPLAPSSKSTSGGTAALGCLVKDYFPEPVTVSWNSGALTSGVHTFPAVLQSSGLYSLSSVVTVPSSSLGTQTYICNVNHKPSNTKVDKKVEPKSCDKTHTCPPCPAPELLGGDSVFLFPPKPKDTLMISRTPEVTCVVVDVAHEDPEVKFNWYVDGVEVHNAKTKPREEQYNSTYRVVSVLTVLHQDWLNGKEYKCKVSNKALPAPIEKTISKAKGQPREPQVYTLPPSRDELTKNQVSLTCLVKGFYPSDIAVEWESNGQPENNYKTTPPVLDSDGSFFLYSKLTVDKSRWQQGNVFSCSVMHEALHNHYTQESLSLSP
light: DIQMTQSPSSLSASVGDRVTITCRASQDISSYLNWYQQKPGKAPKLLIYYTSRLHSGVPSRFSGSGSGTDFTFTISSLQPEDIATYYCQQGNTLPYTFGQGTKVEIK
notes: copies: 2 + 2

Columns and labels:
Test in all cases: SPR (Biacore), FcγR over captured antibody; amount bound relative to IL6R-BF648/IL6R-L x100
human FcγRIIa type R = biological target: T1, human FcγRIIa type R
human FcγRIIb = biological target: T2, human FcγRIIb
human FcγRIa = biological target: T4, human FcγRIa (human, UniProt P12314 16-292, limits assumed)
T4 construct: also called CD64
T4 sequence (P12314 16-292 limits assumed): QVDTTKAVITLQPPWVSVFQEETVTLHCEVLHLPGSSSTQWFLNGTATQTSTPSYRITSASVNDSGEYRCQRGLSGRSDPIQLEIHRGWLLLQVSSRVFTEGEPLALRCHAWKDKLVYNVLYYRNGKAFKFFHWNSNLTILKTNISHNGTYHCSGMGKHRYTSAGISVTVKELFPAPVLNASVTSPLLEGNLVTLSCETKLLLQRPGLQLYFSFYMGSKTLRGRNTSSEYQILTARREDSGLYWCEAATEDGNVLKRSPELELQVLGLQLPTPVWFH

human FcγRIIIa type V = biological target: T5, human FcγRIIIa type V (human, UniProt P08637 17-208, limits assumed)
T5 construct: also called FcγRIIIaV; FcγRIIIa(V)
T5 sequence (P08637 other isoform, or with tags, fused parts or gaps limits assumed): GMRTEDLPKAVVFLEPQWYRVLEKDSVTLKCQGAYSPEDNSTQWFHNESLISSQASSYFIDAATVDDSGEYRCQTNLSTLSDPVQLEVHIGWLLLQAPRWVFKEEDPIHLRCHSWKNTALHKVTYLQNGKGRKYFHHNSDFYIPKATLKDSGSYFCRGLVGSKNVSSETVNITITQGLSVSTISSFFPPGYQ

human FcγRIIa type H = biological target: T3, human FcγRIIa type H

Binder	relative binding (human FcγRIIa type R)	relative binding (human FcγRIIb)	relative binding (human FcγRIa)	relative binding (human FcγRIIIa type V)	relative binding (human FcγRIIa type H)
B1	244 relative value (IL6R-BF648/IL6R-L = 100)	132 relative value (IL6R-BF648/IL6R-L = 100)	140 relative value (IL6R-BF648/IL6R-L = 100)	144 relative value (IL6R-BF648/IL6R-L = 100)	179 relative value (IL6R-BF648/IL6R-L = 100)
B2	181 relative value (IL6R-BF648/IL6R-L = 100)	110 relative value (IL6R-BF648/IL6R-L = 100)	117 relative value (IL6R-BF648/IL6R-L = 100)	145 relative value (IL6R-BF648/IL6R-L = 100)	133 relative value (IL6R-BF648/IL6R-L = 100)
B3	128 relative value (IL6R-BF648/IL6R-L = 100)	101 relative value (IL6R-BF648/IL6R-L = 100)	105 relative value (IL6R-BF648/IL6R-L = 100)	127 relative value (IL6R-BF648/IL6R-L = 100)	127 relative value (IL6R-BF648/IL6R-L = 100)
B4	126 relative value (IL6R-BF648/IL6R-L = 100)	108 relative value (IL6R-BF648/IL6R-L = 100)	110 relative value (IL6R-BF648/IL6R-L = 100)	114 relative value (IL6R-BF648/IL6R-L = 100)	110 relative value (IL6R-BF648/IL6R-L = 100)
B5	163 relative value (IL6R-BF648/IL6R-L = 100)	107 relative value (IL6R-BF648/IL6R-L = 100)	56 relative value (IL6R-BF648/IL6R-L = 100)	77 relative value (IL6R-BF648/IL6R-L = 100)	69 relative value (IL6R-BF648/IL6R-L = 100)
B6	132 relative value (IL6R-BF648/IL6R-L = 100)	104 relative value (IL6R-BF648/IL6R-L = 100)	101 relative value (IL6R-BF648/IL6R-L = 100)	144 relative value (IL6R-BF648/IL6R-L = 100)	128 relative value (IL6R-BF648/IL6R-L = 100)
B7	165 relative value (IL6R-BF648/IL6R-L = 100)	106 relative value (IL6R-BF648/IL6R-L = 100)	104 relative value (IL6R-BF648/IL6R-L = 100)	86 relative value (IL6R-BF648/IL6R-L = 100)	66 relative value (IL6R-BF648/IL6R-L = 100)
B8	197 relative value (IL6R-BF648/IL6R-L = 100)	110 relative value (IL6R-BF648/IL6R-L = 100)	121 relative value (IL6R-BF648/IL6R-L = 100)	138 relative value (IL6R-BF648/IL6R-L = 100)	128 relative value (IL6R-BF648/IL6R-L = 100)
